System: Escherichia coli TOP10
Test: shrunken log2 fold change of peptide-encoding DNA abundance (4.5 h post-induction vs induction); higher = less antimicrobial activity (less host growth inhibition)
Conditions: time post-induction: 4.5 h; library: site-saturation at positions 5, 18, 19, 20
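Further: peptides expressed intracellularly from a pBAD plasmid library in pooled LB shake-flask culture, induced with 0.3% L-arabinose, DNA abundance read by NGS, three biological replicates, DESeq2 with apeglm shrinkage.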

Sequence | shrunken log2 fold change
RRIRWRPPRLPRPRPRPPGQPRP | 0.123
RRIRIRPPRLPRPRPRPVPIPRP | -0.403
RRIRYRPPRLPRPRPRPYFFPRP | -0.792
RRIRYRPPRLPRPRPRPCMPPRP | -0.123
RRIRERPPRLPRPRPRPLLFPRP | -0.121
RRIRPRPPRLPRPRPRPSFMPRP | -0.377
RRIRMRPPRLPRPRPRPAKLPRP | 0.441
RRIRGRPPRLPRPRPRPCGKPRP | 0.0957
RRIRDRPPRLPRPRPRPKYEPRP | -0.00728
RRIRWRPPRLPRPRPRPSCAPRP | 0.145
RRIRLRPPRLPRPRPRPIIGPRP | -0.0425
RRIRNRPPRLPRPRPRPAVRPRP | 0.2
RRIRSRPPRLPRPRPRPMQYPRP | -0.289
RRIRPRPPRLPRPRPRPWETPRP | 0.124
RRIRCRPPRLPRPRPRPAAMPRP | 0.281
RRIRMRPPRLPRPRPRPENDPRP | 3.77
RRIRMRPPRLPRPRPRPNDYPRP | -0.103
RRIRSRPPRLPRPRPRPTHTPRP | 0.106
RRIRYRPPRLPRPRPRPSTNPRP | -0.757
RRIRSRPPRLPRPRPRPSWAPRP | -0.0813
RRIRIRPPRLPRPRPRPNNWPRP | -0.535
RRIRPRPPRLPRPRPRPPAVPRP | 0.37
RRIRFRPPRLPRPRPRPPMDPRP | -0.155
RRIRCRPPRLPRPRPRPYASPRP | -0.0843
RRIRQRPPRLPRPRPRPAFLPRP | -0.0387

Sequence | shrunken log2 fold change
RRIRNRPPRLPRPRPRPGADPRP | 0.0958
RRIRTRPPRLPRPRPRPKQPPRP | 0.0517
RRIRCRPPRLPRPRPRPMWVPRP | 0.121
RRIRSRPPRLPRPRPRPQHRPRP | -0.222
RRIRIRPPRLPRPRPRPGWNPRP | -0.0913
RRIRQRPPRLPRPRPRPKLQPRP | 1.59
RRIRVRPPRLPRPRPRPLPWPRP | 0.196
RRIRERPPRLPRPRPRPYPVPRP | -0.224
RRIRTRPPRLPRPRPRPNLRPRP | -0.184
RRIRERPPRLPRPRPRPAFVPRP | 0.121
RRIRSRPPRLPRPRPRPKFQPRP | 0.146
RRIRMRPPRLPRPRPRPAIWPRP | 1.36
RRIRGRPPRLPRPRPRPWDPPRP | -0.11
RRIRPRPPRLPRPRPRPCVYPRP | -0.22
RRIRVRPPRLPRPRPRPPSIPRP | 0.231
RRIRERPPRLPRPRPRPLILPRP | -0.574
RRIRMRPPRLPRPRPRPMKIPRP | -0.00146
RRIRNRPPRLPRPRPRPLYEPRP | -0.675
RRIRYRPPRLPRPRPRPLGTPRP | -0.227
RRIRDRPPRLPRPRPRPPVLPRP | 0.267
RRIRSRPPRLPRPRPRPEYYPRP | 0.0495
RRIRKRPPRLPRPRPRPCINPRP | -0.162
RRIRYRPPRLPRPRPRPLLRPRP | -0.468
RRIRCRPPRLPRPRPRPKKSPRP | -0.0331
RRIRRRPPRLPRPRPRPFKTPRP | -0.0587

Sequence | shrunken log2 fold change
RRIRERPPRLPRPRPRPILTPRP | -0.337
RRIRMRPPRLPRPRPRPASNPRP | 0.421
RRIRKRPPRLPRPRPRPKWTPRP | 0.198
RRIRMRPPRLPRPRPRPRRFPRP | 0.339
RRIRCRPPRLPRPRPRPCIDPRP | -0.385
RRIRKRPPRLPRPRPRPKHLPRP | -0.334
RRIRPRPPRLPRPRPRPNWQPRP | 0.131
RRIRRRPPRLPRPRPRPIAIPRP | 0.108
RRIRTRPPRLPRPRPRPVFCPRP | -0.139
RRIRQRPPRLPRPRPRPWSYPRP | -0.106
RRIRVRPPRLPRPRPRPWAHPRP | -0.0201
RRIRSRPPRLPRPRPRPLTDPRP | -0.162
RRIRGRPPRLPRPRPRPRMHPRP | 0.997
RRIRDRPPRLPRPRPRPESVPRP | 0.0047
RRIRRRPPRLPRPRPRPLTKPRP | 0.132
RRIRARPPRLPRPRPRPKLCPRP | 0.225
RRIRFRPPRLPRPRPRPREQPRP | 0.204
RRIRDRPPRLPRPRPRPPWPPRP | 0.654
RRIRARPPRLPRPRPRPRQVPRP | 0.2
RRIRNRPPRLPRPRPRPYYHPRP | -0.781
RRIRCRPPRLPRPRPRPYQNPRP | -1.1
RRIRERPPRLPRPRPRPYIHPRP | -0.17
RRIRKRPPRLPRPRPRPMHLPRP | -0.0647
RRIRWRPPRLPRPRPRPSFGPRP | -0.0482
RRIRKRPPRLPRPRPRPQESPRP | -0.00973

Sequence | shrunken log2 fold change
RRIRGRPPRLPRPRPRPGKTPRP | 0.0643
RRIRKRPPRLPRPRPRPGVGPRP | 0.818
RRIRARPPRLPRPRPRPYQSPRP | -0.0285
RRIRTRPPRLPRPRPRPGAGPRP | 0.286
RRIRARPPRLPRPRPRPRRLPRP | 0.537
RRIRERPPRLPRPRPRPMRKPRP | -0.0645
RRIRHRPPRLPRPRPRPNSQPRP | -0.346
RRIRGRPPRLPRPRPRPKRWPRP | 0.796
RRIRRRPPRLPRPRPRPCKKPRP | 0.0185
RRIRPRPPRLPRPRPRPDQRPRP | 0.015
RRIRIRPPRLPRPRPRPTNEPRP | -0.4
RRIRCRPPRLPRPRPRPANVPRP | -0.0934
RRIRFRPPRLPRPRPRPHFQPRP | -0.261
RRIRGRPPRLPRPRPRPTSVPRP | 0.197
RRIRTRPPRLPRPRPRPKDYPRP | -0.115
RRIRVRPPRLPRPRPRPAHIPRP | -0.0203
RRIRYRPPRLPRPRPRPEYWPRP | -0.692
RRIRHRPPRLPRPRPRPWYYPRP | -1.47
RRIRMRPPRLPRPRPRPNMAPRP | 0.155
RRIRARPPRLPRPRPRPMWGPRP | 0.115
RRIRTRPPRLPRPRPRPNPQPRP | 0.125
RRIRGRPPRLPRPRPRPWMRPRP | 0.444
RRIRTRPPRLPRPRPRPNITPRP | -0.664
RRIRSRPPRLPRPRPRPTEYPRP | -0.206
RRIRPRPPRLPRPRPRPISAPRP | -0.0726

Sequence | shrunken log2 fold change
RRIRPRPPRLPRPRPRPKNLPRP | -0.0674
RRIRQRPPRLPRPRPRPYCSPRP | -0.132
RRIRVRPPRLPRPRPRPKNPPRP | -0.17
RRIRARPPRLPRPRPRPGEGPRP | 1.02
RRIRIRPPRLPRPRPRPHELPRP | -0.156
RRIRLRPPRLPRPRPRPHCFPRP | -0.0782
RRIRTRPPRLPRPRPRPRQKPRP | 0.0911
RRIRIRPPRLPRPRPRPQYHPRP | -0.436
RRIRFRPPRLPRPRPRPFLVPRP | -0.426
RRIRWRPPRLPRPRPRPYGKPRP | 0.027
RRIRMRPPRLPRPRPRPFYPPRP | -0.401
RRIRFRPPRLPRPRPRPYAHPRP | -0.18
RRIRYRPPRLPRPRPRPMCVPRP | -0.227
RRIRARPPRLPRPRPRPVLEPRP | 0.488
RRIRARPPRLPRPRPRPMWLPRP | 0.0028
RRIRMRPPRLPRPRPRPKHCPRP | 0.0651
RRIRCRPPRLPRPRPRPICYPRP | -0.358
RRIRPRPPRLPRPRPRPIVVPRP | -0.134
RRIRIRPPRLPRPRPRPAGNPRP | -0.0516
RRIRGRPPRLPRPRPRPAHWPRP | 0.378
RRIRFRPPRLPRPRPRPLNDPRP | -0.839
RRIRHRPPRLPRPRPRPDYCPRP | -0.01
RRIRYRPPRLPRPRPRPKDFPRP | 0.00489
RRIRFRPPRLPRPRPRPGGMPRP | -0.0381
RRIRKRPPRLPRPRPRPYTAPRP | -0.338
